Measurements published in publication PMC2928812.

Test system: FMDV 3D polymerase wild type (Foot-and-mouth disease virus C-S8c1?)
Experiment: EMSA

**Q.** “heteropolymeric RNA template-primer of the RNA binding assay” was tested. Which binding signal (% RNA retarded) did it give?
**A.** 62
